According to paper PMC8464030:

Legend:
DRH-3 full length [1] = target: T1, DRH-3 full length (Caenorhabditis elegans, UniProt Q93413 1-1119); test: size-exclusion chromatography
T1 sequence: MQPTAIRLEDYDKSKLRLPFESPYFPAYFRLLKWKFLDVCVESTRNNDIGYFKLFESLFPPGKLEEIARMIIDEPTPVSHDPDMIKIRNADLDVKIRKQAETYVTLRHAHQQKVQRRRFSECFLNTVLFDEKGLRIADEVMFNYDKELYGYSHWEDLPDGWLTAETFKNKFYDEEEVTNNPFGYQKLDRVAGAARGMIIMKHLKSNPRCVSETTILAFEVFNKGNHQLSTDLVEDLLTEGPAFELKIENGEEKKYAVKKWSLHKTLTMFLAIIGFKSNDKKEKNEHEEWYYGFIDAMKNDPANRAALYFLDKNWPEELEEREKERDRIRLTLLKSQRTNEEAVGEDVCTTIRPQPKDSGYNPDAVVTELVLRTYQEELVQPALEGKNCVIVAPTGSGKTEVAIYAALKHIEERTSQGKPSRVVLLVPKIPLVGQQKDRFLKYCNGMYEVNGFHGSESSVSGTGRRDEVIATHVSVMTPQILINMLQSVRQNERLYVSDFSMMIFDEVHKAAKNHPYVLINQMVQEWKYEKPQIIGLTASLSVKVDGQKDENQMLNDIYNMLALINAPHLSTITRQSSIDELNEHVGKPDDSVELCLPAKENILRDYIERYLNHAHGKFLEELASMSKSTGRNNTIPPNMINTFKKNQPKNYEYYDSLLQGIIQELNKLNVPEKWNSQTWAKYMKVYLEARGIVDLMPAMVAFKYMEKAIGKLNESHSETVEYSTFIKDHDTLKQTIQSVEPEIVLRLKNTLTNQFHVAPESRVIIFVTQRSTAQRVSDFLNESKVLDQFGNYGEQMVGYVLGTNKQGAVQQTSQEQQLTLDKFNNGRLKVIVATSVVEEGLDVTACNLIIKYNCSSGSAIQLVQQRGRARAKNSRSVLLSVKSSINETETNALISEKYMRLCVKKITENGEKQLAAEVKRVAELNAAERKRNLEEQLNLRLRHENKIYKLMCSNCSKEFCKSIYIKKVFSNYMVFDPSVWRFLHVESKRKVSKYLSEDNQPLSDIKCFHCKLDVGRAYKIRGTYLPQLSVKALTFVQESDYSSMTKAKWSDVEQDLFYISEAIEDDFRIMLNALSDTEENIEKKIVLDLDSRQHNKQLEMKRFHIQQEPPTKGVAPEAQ

DRH-3 full length [2] = target: T1, DRH-3 full length; test: size-exclusion chromatography; remark: listed apart in the source
DRH-3 full length [3] = target: T1, DRH-3 full length; test: HDX-MS
DRH-3 CTD = target: T2, DRH-3 CTD (Caenorhabditis elegans, UniProt Q93413 940-1108); test: crystal structure
T2 sequence: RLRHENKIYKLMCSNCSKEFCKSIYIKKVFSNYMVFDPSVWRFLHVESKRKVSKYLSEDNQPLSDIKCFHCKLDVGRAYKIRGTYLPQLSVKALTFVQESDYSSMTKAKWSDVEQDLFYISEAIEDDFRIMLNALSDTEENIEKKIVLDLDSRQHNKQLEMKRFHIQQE

DRH-1 CTD = target: T3, DRH-1 CTD (Caenorhabditis elegans, UniProt G5EDI8 877-1006); test: limited proteolysis
T3 sequence: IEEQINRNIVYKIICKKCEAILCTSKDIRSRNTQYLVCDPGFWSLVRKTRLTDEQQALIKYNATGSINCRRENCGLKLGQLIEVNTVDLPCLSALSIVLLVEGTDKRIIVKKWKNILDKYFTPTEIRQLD

RIG-I CTD = target: T4, RIG-I CTD (human, UniProt O95786 802-925); test: limited proteolysis
T4 sequence: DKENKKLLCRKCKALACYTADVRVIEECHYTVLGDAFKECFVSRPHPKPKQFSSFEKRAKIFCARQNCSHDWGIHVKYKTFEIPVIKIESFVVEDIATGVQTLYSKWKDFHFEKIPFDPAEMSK

B1: GC30 (30-bp dsRNA) (dsRNA)
RNA 1: GGCGCGCGCGCGCGCGCGCGCGCGCGCGCGCC
RNA 2: B1 RNA 1
modifications: 5'-triphosphate on both strands
DRH-3 full length [1]
  binding result: binds

B2: Hairpin 30 (structured_RNA)
RNA: GGACGUACGUACGUGCACGUACGUACGUGCUUCGGCACGUACGUACGUGCACGUACGUACGUCC
modifications: 5'-triphosphate
DRH-3 full length [2]
  binding result: binds

## GGACGUACGUUUCGACGUACGUCC (structured_RNA, 5'-triphosphate) [3p10L (SLR10)]
DRH-3 full length [3]
  binding result: binds

## GGCCGCCC (ssRNA, 5'-triphosphate) [8-nt ssRNA]
DRH-3 CTD
  binding result: binds

B3: R1 / 12-mer 5'-ppp dsRNA (dsRNA)
RNA 1: GGCGCGCGCGCC
RNA 2: GGCGCGCGCGCC
modifications: 5'-triphosphate on both strands
DRH-1 CTD
  binding result: binds
RIG-I CTD
  binding result: binds
DRH-3 CTD
  binding result: binds
